Values of other authors in PMC4276913.

Biological target: Ubc13 (Homo sapiens) (UniProt P61088)
UniProt P61088, sequence (P61088 whole entry): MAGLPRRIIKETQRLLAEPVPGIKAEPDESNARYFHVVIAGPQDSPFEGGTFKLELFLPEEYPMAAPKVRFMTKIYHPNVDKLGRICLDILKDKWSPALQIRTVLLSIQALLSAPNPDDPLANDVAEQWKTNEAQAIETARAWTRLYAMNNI

Kd: 49 nM
Substance: Mms2 (from UniProt Q15819)
